Assays:
[1] = molecular target: P22 coat protein (bacteriophage P22) (UniProt P26747); experiment: SEC-MALS
[2] = molecular target: P22-StAv particles (in vitro assembled) (bacteriophage P22 | not stated) (UniProt P26747); experiment: SEC-MALS

UniProt P26747, sequence (P26747 whole entry): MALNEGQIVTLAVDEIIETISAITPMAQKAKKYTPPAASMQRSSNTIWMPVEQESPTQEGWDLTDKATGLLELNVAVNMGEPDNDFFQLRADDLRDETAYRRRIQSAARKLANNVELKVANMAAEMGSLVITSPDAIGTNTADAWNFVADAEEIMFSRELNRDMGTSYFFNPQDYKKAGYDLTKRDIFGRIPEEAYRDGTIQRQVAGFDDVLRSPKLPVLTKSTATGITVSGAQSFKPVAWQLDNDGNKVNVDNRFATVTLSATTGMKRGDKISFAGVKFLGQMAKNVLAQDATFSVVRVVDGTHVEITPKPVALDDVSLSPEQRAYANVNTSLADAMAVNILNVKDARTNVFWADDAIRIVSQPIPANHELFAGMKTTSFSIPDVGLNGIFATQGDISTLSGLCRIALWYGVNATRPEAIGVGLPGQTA

| Substance | copies of StAv-SP per capsid (copies per capsid) [1] | stoichiometry N (copies per capsid) [2] |
| --- | --- | --- |
| 6xhis-StAv(15–159)-GAAG-ENLYFQS-GAAG-SP(142–303) (from UniProt P26748 142-303) | 328 |  |
| biotinylated Cys-6xhis-SP(142–303)-GGGGG-ENLYFQS-GGGGG-GFP (from UniProt P26748 142-303) |  | 36 |

Source: article PMC6482854
